In PMC5770437, “The crystal structure of D-xylonate dehydratase reveals functional features of enzymes from the Ilv/ED dehydratase family” (Scientific Reports, 2018):

What was measured:
[1] = molecular target: D-xylonate dehydratase from Caulobacter crescentus (Caulobacter crescentus); assay: crystal structure; holo-CcXyDHT at 2.7 Å, molecular replacement with 5J84, space group C2, a tetramer in the asymmetric unit; packing analysed with the PISA server
[2] = molecular target: T1, D-xylonate dehydratase from Caulobacter crescentus (CcXyDHT) (Caulobacter vibrioides, UniProt Q9A9Z2); assay: X-ray crystal structure, […] Å; assay type: binding; conditions: holo form with Mg2+; Fe1 bound by Cys60 and Cys128, Fe2 by Cys200; active site
T1 construct: gene xylD; N-terminal Strep-tag II kept; expressed in E. coli; homotetramer; residues 1-591 (Asn3-His591 modelled); Lys130 carbamylated

[3] = molecular target: the molecule itself; assay: crystal structure; re-refinement with PHENIX of the deposited apo So6PGDHT model (PDB 2GP4, 2.5 Å)

T1 sequence (Q9A9Z2 6-595): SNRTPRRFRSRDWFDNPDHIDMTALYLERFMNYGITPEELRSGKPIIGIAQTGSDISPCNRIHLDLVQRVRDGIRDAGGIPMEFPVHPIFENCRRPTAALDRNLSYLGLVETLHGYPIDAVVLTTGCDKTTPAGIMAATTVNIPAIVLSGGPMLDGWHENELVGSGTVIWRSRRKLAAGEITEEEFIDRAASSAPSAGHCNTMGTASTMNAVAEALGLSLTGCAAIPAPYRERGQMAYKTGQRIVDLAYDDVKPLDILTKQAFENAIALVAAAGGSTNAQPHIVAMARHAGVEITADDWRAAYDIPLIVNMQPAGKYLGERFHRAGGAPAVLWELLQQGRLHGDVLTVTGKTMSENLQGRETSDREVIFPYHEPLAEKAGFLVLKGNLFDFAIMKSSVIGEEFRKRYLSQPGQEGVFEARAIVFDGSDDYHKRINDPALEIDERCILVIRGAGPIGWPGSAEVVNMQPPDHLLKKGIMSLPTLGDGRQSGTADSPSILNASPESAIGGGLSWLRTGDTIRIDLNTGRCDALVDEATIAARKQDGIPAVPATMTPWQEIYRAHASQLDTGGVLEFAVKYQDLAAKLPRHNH

Q: “D-xylonate dehydratase from Caulobacter crescentus (enzyme)” was tested. Which stoichiometry N [1] did it give?
A: The stoichiometry N was 4.

Q: For `[S]1[Fe][S][Fe]1` [[2Fe-2S] cluster], which “X-ray crystal structure, 2.7 Å” value [2] is on record?
A: The value was “The crystal structure of CcXyDHT suggests that the enzyme has a [2Fe-2S] cluster”.

B1: 6-phosphogluconate dehydratase from Shewanella oneidensis (enzyme)
chain: MHSVVQSVTDRIIARSKASREAYLAALNDARNHGVHRSSLSCGNLAHGFAACNPDDKNALRQLTKANIGIITAFNDMLSAHQPYETYPDLLKKACQEVGSVAQVAGGVPAMCDGVTQGQPGMELSLLSREVIAMATAVGLSHNMFDGALLLGICDKIVPGLLIGALSFGHLPMLFVPAGPMKSGIPNKEKARIRQQFAQGKVDRAQLLEAEAQSYHSAGTCTFYGTANSNQLMLEVMGLQLPGSSFVNPDDPLREALNKMAAKQVCRLTELGTQYSPIGEVVNEKSIVNGIVALLATGGSTNLTMHIVAAARAAGIIVNWDDFSELSDAVPLLARVYPNGHADINHFHAAGGMAFLIKELLDAGLLHEDVNTVAGYGLRRYTQEPKLLDGELRWVDGPTVSLDTEVLTSVATPFQNNGGLKLLKGNLGRAVIKVSAVQPQHRVVEAPAVVIDDQNKLDALFKSGALDRDCVVVVKGQGPKANGMPELHKLTPLLGSLQDKGFKVALMTDGRMSGASGKVPAAIHLTPEAIDGGLIAKVQDGDLIRVDALTGELSLLVSDTELATRTATEIDLRHSRYGMGRELFGVLRSNLSSPETGARSTSAIDELY
notes: 6-phosphogluconate dehydratase, Shewanella oneidensis, GenBank WP_011072452; apo form as in PDB 2GP4 (no [Fe-S] cluster, no Mg2+); The crystal data were deposited by others (PDB 2GP4, unpublished); also called So6PGDHT; SoPGDHT
Q: For B1, which “stoichiometry N” value [3] is on record?
A: The value was 2.
